Consider 23 molecules from patent publication US20140187491A1 (Bayer, published 2014).

Changes are numbered by the printed parent chain. Like-named read-outs stand apart in the source and are kept apart here. Ends that are not written are not given here.

Assay [1] has as its target T1, human LGR7/RXFP1 receptor (human, UniProt Q9HBX9 1-757).
T1 sequence (looked up): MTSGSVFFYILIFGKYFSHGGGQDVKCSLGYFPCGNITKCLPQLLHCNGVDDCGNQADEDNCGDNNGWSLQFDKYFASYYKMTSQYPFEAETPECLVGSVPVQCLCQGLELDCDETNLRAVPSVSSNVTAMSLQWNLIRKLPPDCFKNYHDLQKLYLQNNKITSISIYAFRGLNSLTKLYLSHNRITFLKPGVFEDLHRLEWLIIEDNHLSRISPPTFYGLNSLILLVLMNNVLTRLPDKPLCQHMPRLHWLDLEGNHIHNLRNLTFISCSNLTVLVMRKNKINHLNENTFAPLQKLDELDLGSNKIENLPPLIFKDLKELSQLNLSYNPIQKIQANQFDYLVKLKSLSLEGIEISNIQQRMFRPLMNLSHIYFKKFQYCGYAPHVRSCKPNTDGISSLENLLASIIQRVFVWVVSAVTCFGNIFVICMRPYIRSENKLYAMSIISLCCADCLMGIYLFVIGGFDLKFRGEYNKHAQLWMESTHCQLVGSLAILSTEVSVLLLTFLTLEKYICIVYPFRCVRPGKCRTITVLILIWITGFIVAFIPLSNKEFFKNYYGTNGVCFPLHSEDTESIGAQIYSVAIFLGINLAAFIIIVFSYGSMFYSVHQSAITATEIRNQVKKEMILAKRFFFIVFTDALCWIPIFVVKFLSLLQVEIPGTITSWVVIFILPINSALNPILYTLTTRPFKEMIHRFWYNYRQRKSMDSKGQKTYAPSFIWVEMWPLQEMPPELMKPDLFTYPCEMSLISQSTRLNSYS
In words: cell-based or functional assay.

In assay [2] the target is T1, human LGR7/RXFP1 receptor. In words: cell-based or functional assay. This is another data set of the same source.

B1: scR15 (ligand)
chain: EQKLISEEDLDVLAGLSSSCCKWGCSKSEISSLCGGGSGGGSGRAAPYGVRLCGREFIRAVIFTCGGSRW
For B1, the “EC50 (M), CRE-luciferase reporter in CHO-CRE-LGR7 cells” value (“EC50 (M), CRE-luciferase reporter” for short) in assay [1] was 6.2e-10 M.

B2: scR5 (ligand)
chain: EQKLISEEDLQLYSALANKCCHVGCTKRSLARFCGGGSGGGSGGGSWMEEVIKLCGRELVRAQIAICGMSTWSYPYDVPDYAHHHHHH
Regarding B2, the “EC50 (M), CRE-luciferase reporter” value in assay [1] is 3.7e-11 M.

B3: scR10 (ligand)
chain: EQKLISEEDLQLYSALANKCCHVGCTKRSLARFCGGGSGGGSGGGSGGSWMEEVIKLCGRELVRAQIAICGMSTWS
Consider B3, for which, in assay [1], the “EC50 (M), CRE-luciferase reporter” value worked out at 4.4e-08 M.

B4: human Relaxin 2 (ligand)
chain 1: QLYSALANKCCHVGCTKRSLARFC
chain 2: SWMEEVIKLCGRELVRAQIAICGMSTWS
B4: the “EC50 (M), CRE-luciferase reporter” value in assay [2] was determined as 3.5e-11 M; in assay [1], 2.6e-11 M.

B5: scR-Fc 17 (Fc fusion)
chain: QLYSALANKCCHVGCTKRSLARFCGGGSGGGSGSWMEEVIKLCGRELVRAQIAICGMSTWSGSGSGSPTCPTCHKCPVPELLGGPSVFIFPPKPKDILLISQNAKVTCVVVDVSEEEPDVQFSWFVNNVEVHTAQTQPREEQYNSTFRVVSALPIQHQDWMSGKEFKCKVNNKALPSPIEKTISKPKGLVRKPQVYVMGPPTEQLTEQTVSLTCLTSGFLPNDIGVEWTSNGHIEKNYKNTEPVMDSDGSFFMYSKLNVERSRWDSRAPFVCSVVHEGLHNHHVEKSISRPPGK
Take B5: the “EC50 (M), CRE-luciferase reporter” value in assay [2] amounted to 2.5e-09 M.

B6: scR7 (ligand)
chain: EQKLISEEDLQLYSALANKCCHVGCTKRSLARFCGGGSGGSWMEEVIKLCGRELVRAQIAICGMSTWS
For B6, the “EC50 (M), CRE-luciferase reporter” value in assay [1] is 5.3e-08 M.

B7: scR-Var2 (ligand)
chain: GCGSGGQLYSALANKCCHVGCTKRSLARFCGGGSGGGSGSWMEEVIKLCGRELVRAQIAICGMSTWS
Regarding B7, the “EC50 (M), CRE-luciferase reporter” value in assay [2] was 4.2e-08 M.

B8: scR-Var1 (ligand)
chain: QLYSALANKCCHVGCTKRSLARFCGGGSGGGSGSWMEEVIKLCGRELVRAQIAICGMSTWSGGSGCG
Consider B8, for which, in assay [2], the “EC50 (M), CRE-luciferase reporter” value was found to be 1.1e-07 M.

B9: scR11 (ligand)
chain: QLYSALANKCCHVGCTKRSLARFCGGGSGCGGSGSWMEEVIKLCGRELVRAQIAICGMSTWS
Turning to B9, the “EC50 (M), CRE-luciferase reporter” value in assay [1] amounted to 2.5e-08 M.

B10: scR12 (ligand)
chain: B9 chain with C30K
In the case of B10, the “EC50 (M), CRE-luciferase reporter” value in assay [1] stood at 3.6e-08 M.

B11: scR17 (ligand)
chain: EQKLISEEDLDVLAGLSSSCCKWGCSKSEISSLCGGGSGGGSGSWMEEVIKLCGRELVRAQIAICGMSTWS
For the molecule B11, in assay [1], the “EC50 (M), CRE-luciferase reporter” value was 1.3e-08 M.

B12: scR9 (ligand)
chain: EQKLISEEDLQLYSALANKCCHVGCTKRSLARFCGGGSGGGSGGGSGSWMEEVIKLCGRELVRAQIAICGMSTWS
As for B12, the “EC50 (M), CRE-luciferase reporter” value in assay [1] amounted to 1.1e-07 M.

B13: scR3 (ligand)
chain: EQKLISEEDLQLYSALANKCCHVGCTKRSLARFCGGGSGGGSWMEEVIKLCGRELVRAQIAICGMSTWSYPYDVPDYAHHHHHH
With B13, the “EC50 (M), CRE-luciferase reporter” value in assay [1] came out at 7.7e-11 M.

B14: scR-Fc 10 (Fc fusion)
chain: QLYSALANKCCHVGCTKRSLARFCGGGSGGGSGSWMEEVIKLCGRELVRAQIAICGMSTWSGGSGGSGGSPTCPTCHKCPVPELLGGPSVFIFPPKPKDILLISQNAKVTCVVVDVSEEEPDVQFSWFVNNVEVHTAQTQPREEQYNSTFRVVSALPIQHQDWMSGKEFKCKVNNKALPSPIEKTISKPKGLVRKPQVYVMGPPTEQLTEQTVSLTCLTSGFLPNDIGVEWTSNGHIEKNYKNTEPVMDSDGSFFMYSKLNVERSRWDSRAPFVCSVVHEGLHNHHVEKSISRPPGKHHHHHH
For the molecule B14, the “EC50 (M), CRE-luciferase reporter” value in assay [2] was 4.8e-09 M.

B15: scR-Fc 8 (Fc fusion)
chain: QLYSALANKCCHVGCTKRSLARFCGGGSGGGSGSWMEEVIKLCGRELVRAQIAICGMSTWSGGSPTCPTCHKCPVPELLGGPSVFIFPPKPKDILLISQNAKVTCVVVDVSEEEPDVQFSWFVNNVEVHTAQTQPREEQYNSTFRVVSALPIQHQDWMSGKEFKCKVNNKALPSPIEKTISKPKGLVRKPQVYVMGPPTEQLTEQTVSLTCLTSGFLPNDIGVEWTSNGHIEKNYKNTEPVMDSDGSFFMYSKLNVERSRWDSRAPFVCSVVHEGLHNHHVEKSISRPPGKHHHHHH
As to B15, the “EC50 (M), CRE-luciferase reporter” value in assay [2] turned out to be 7.2e-09 M.

B16: scR-Fc 11 (Fc fusion)
chain: HHHHHHPTCPTCHKCPVPELLGGPSVFIFPPKPKDILLISQNAKVTCVVVDVSEEEPDVQFSWFVNNVEVHTAQTQPREEQYNSTFRVVSALPIQHQDWMSGKEFKCKVNNKALPSPIEKTISKPKGLVRKPQVYVMGPPTEQLTEQTVSLTCLTSGFLPNDIGVEWTSNGHIEKNYKNTEPVMDSDGSFFMYSKLNVERSRWDSRAPFVCSVVHEGLHNHHVEKSISRPPGKGGSPQLYSALANKCCHVGCTKRSLARFCGGGSGGGSGSWMEEVIKLCGRELVRAQIAICGMSTWS
For B16, the “EC50 (M), CRE-luciferase reporter” value in assay [2] was 1.2e-09 M.

B17: scR4 (ligand)
chain: EQKLISEEDLQLYSALANKCCHVGCTKRSLARFCGGGSGGGSGSWMEEVIKLCGRELVRAQIAICGMSTWSYPYDVPDYAHHHHHH
Turning to B17, the “EC50 (M), CRE-luciferase reporter” value in assay [1] turned out to be 3.4e-11 M.

B18: scR-Fc 12 (Fc fusion)
chain: HHHHHHPTCPTCHKCPVPELLGGPSVFIFPPKPKDILLISQNAKVTCVVVDVSEEEPDVQFSWFVNNVEVHTAQTQPREEQYNSTFRVVSALPIQHQDWMSGKEFKCKVNNKALPSPIEKTISKPKGLVRKPQVYVMGPPTEQLTEQTVSLTCLTSGFLPNDIGVEWTSNGHIEKNYKNTEPVMDSDGSFFMYSKLNVERSRWDSRAPFVCSVVHEGLHNHHVEKSISRPPGKGGSGGSPQLYSALANKCCHVGCTKRSLARFCGGGSGGGSGSWMEEVIKLCGRELVRAQIAICGMSTWS
Consider B18, for which, in assay [2], the “EC50 (M), CRE-luciferase reporter” value came out at 9.5e-10 M.

B19: scR-Fc 13 (Fc fusion)
chain: HHHHHHPTCPTCHKCPVPELLGGPSVFIFPPKPKDILLISQNAKVTCVVVDVSEEEPDVQFSWFVNNVEVHTAQTQPREEQYNSTFRVVSALPIQHQDWMSGKEFKCKVNNKALPSPIEKTISKPKGLVRKPQVYVMGPPTEQLTEQTVSLTCLTSGFLPNDIGVEWTSNGHIEKNYKNTEPVMDSDGSFFMYSKLNVERSRWDSRAPFVCSVVHEGLHNHHVEKSISRPPGKGGSGGSGGSPQLYSALANKCCHVGCTKRSLARFCGGGSGGGSGSWMEEVIKLCGRELVRAQIAICGMSTWS
As for B19, the “EC50 (M), CRE-luciferase reporter” value in assay [2] came to 8.9e-10 M.

B20: scR8 (ligand)
chain: EQKLISEEDLQLYSALANKCCHVGCTKRSLARFCGGGSGGGSGGGSSWMEEVIKLCGRELVRAQIAICGMSTWS
For the molecule B20, the “EC50 (M), CRE-luciferase reporter” value in assay [1] came to 2.4e-08 M.

B21: scR-Fc 9 (Fc fusion)
chain: QLYSALANKCCHVGCTKRSLARFCGGGSGGGSGSWMEEVIKLCGRELVRAQIAICGMSTWSGGSGGSPTCPTCHKCPVPELLGGPSVFIFPPKPKDILLISQNAKVTCVVVDVSEEEPDVQFSWFVNNVEVHTAQTQPREEQYNSTFRVVSALPIQHQDWMSGKEFKCKVNNKALPSPIEKTISKPKGLVRKPQVYVMGPPTEQLTEQTVSLTCLTSGFLPNDIGVEWTSNGHIEKNYKNTEPVMDSDGSFFMYSKLNVERSRWDSRAPFVCSVVHEGLHNHHVEKSISRPPGKHHHHHH
B21: the “EC50 (M), CRE-luciferase reporter” value in assay [2] worked out at 9.9e-09 M.

B22: human Relaxin 3 (ligand)
chain 1: DVLAGLSSSCCKWGCSKSEISSLC
chain 2: RAAPYGVRLCGREFIRAVIFTCGGSRW
In the case of B22, the “EC50 (M), CRE-luciferase reporter” value in assay [1] is 2.3e-09 M.

B23: scR14 (ligand)
chain: DVLAGLSSSCCKWGCSKSEISSLCGGGSGGGSGRAAPYGVRLCGREFIRAVIFTCGGSRW
modifications: ends and bridges not checked; cysteine pairing not given here
Take B23: the “EC50 (M), CRE-luciferase reporter” value in assay [1] came out at 5.9e-10 M.
